# Source: patent publication US20190338002A1 (Pieris, published 2019)
# Legend:
# [1] = molecular target: T1, human alpha CGRP (SEQ ID NO: 80) (human, not fully specified); experiment: competition ELISA in solution; free mutein detected on plate-bound biotinylated CGRP
# T1 construct: also called human αCGRP; hαCGRP
# T1 peptide: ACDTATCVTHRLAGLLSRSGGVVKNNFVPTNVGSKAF
# Method: (§1) Binding of lipocalin muteins to alpha and beta CGRP from human and rat in solution was tested in vitro using a competition ELISA assay format (FIG. 1). In this experiment, a constant concentration of non-biotinylated CGRP (0.5 μM) was incubated for 1 h with variable concentrations of lipocalin muteins SEQ ID NO: 2, SEQ ID NO: 3, SEQ ID NO: 4; SEQ ID NO: 5, and SEQ ID NO: 6. After this pre-incubation in solution, an aliquot of the lipocalin mutein/CGRP mixture was transferred to an ELISA plate coated with Neutravidin-captured human alpha CGRP-bio to measure the concentration of lipocalin muteins that was not blocked by non-biotinylated human alpha CGRP (SEQ ID NO: 80) and therefore could still be bound by the immobilized human alpha CGRP-bio (FIG. 1). This procedure was performed on another relevant CGRP species (human beta CGRP (SEQ ID NO: 81), rat alpha CGRP (SEQ ID NO: 82), rat beta CGRP (SEQ ID NO: 83)). All incubation steps were performed with shaking at 300 rpm, and the plate was washed after each incubation step with 80 μL PBS-T buffer (PBS, 0.05% Tween 20) for five times using a Biotek ELx405 select CW washer. In the first step, a 384-well ELISA plate was coated with 20 μL of Neutravidin at a concentration of 5 μg/mL in PBS over night at 4° C. After washing, the plate was blocked with 60 μL PBS-T/BSA (2% BSA in PBS containing 0.05% Tween 20) for 1 h at room temperature.
# (§2) To allow for detection and quantification of plate-bound lipocalin muteins, the residual supernatants were discarded and 20 μL HRP-labeled anti-hNGAL antibody was added at a predetermined optimal concentration in PBS-T/BSA and incubated for 1 h at RT. The anti-hNGAL antibody had been obtained by immunization of rabbits with a mixture of muteins, and was subsequently coupled to HRP using a kit (EZ-link Plus Activated Peroxidase, Thermo Scientific) according to the manufacturer's instructions, to obtain the antibody-HRP conjugate. After washing, 20 μl fluorogenic HRP substrate (QuantaBlu, Thermo) was added to each well, and the reaction was allowed to proceed for 15 to 60 minutes. The fluorescence intensity of every well on the plate was read using a fluorescence microplate reader (Tecan or Molecular Devices). To evaluate the data, free mutein concentration, c(mutein)free, was calculated based on the standard curve results, and plotted versus ligand concentration, c(Ligand).
# [2] = molecular target: T2, human beta CGRP (SEQ ID NO: 81) (human, not fully specified); experiment: as above
# T2 construct: also called human βCGRP; hβCGRP
# T2 peptide: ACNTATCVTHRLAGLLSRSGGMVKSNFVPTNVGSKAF
# Method: as §1, §2
# [3] = molecular target: T3, rat alpha CGRP (SEQ ID NO: 82) (rat); experiment: as above
# T3 construct: also called rat αCGRP; rat α-CGRP
# T3 peptide: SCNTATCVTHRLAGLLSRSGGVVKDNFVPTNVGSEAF
# Method: as §1, §2
# [4] = molecular target: T4, rat beta CGRP (SEQ ID NO: 83) (rat, not fully specified); experiment: as above
# T4 construct: also called rat βCGRP; rat β-CGRP
# T4 peptide: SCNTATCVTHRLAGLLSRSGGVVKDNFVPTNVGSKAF
# Method: as §1, §2
# [5] = molecular target: T1, human alpha CGRP (SEQ ID NO: 80); experiment: SPR, 37 C, mutein captured, CGRP analyte
# How it was run: (§3)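 Biotinylated lipocalin muteins were captured on streptavidin-oligo CAP chip, and CGRP was injected at 30, 3 and 0.3 nM or at a single 25 nM at 37 °C (180 s association, 5400 s dissociation) in HBS-EP+. Double-referenced sensorgrams were globally fit to a 1:1 model for ka and kd.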
# [6] = molecular target: T2, human beta CGRP (SEQ ID NO: 81); experiment: SPR, 37 C, mutein captured, CGRP analyte
# How it was run: as §3
# [7] = molecular target: T3, rat alpha CGRP (SEQ ID NO: 82); experiment: SPR, 37 C, mutein captured, CGRP analyte
# How it was run: as §3
# [8] = molecular target: T4, rat beta CGRP (SEQ ID NO: 83); experiment: SPR, 37 C, mutein captured, CGRP analyte
# How it was run: as §3
# [9] = molecular target: T1, human alpha CGRP (SEQ ID NO: 80); experiment: cell-based or functional assay
# [10] = molecular target: T2, human beta CGRP (SEQ ID NO: 81); experiment: cell-based or functional assay
# [11] = molecular target: T3, rat alpha CGRP (SEQ ID NO: 82); experiment: cell-based or functional assay
# [12] = molecular target: T4, rat beta CGRP (SEQ ID NO: 83); experiment: cell-based or functional assay
# [13] = molecular target: T1, human alpha CGRP (SEQ ID NO: 80); experiment: SPR Biacore 37 °C, mutein captured as ligand, sample PL1827 (ha CGRP) injected, 1:1 fit; repeat run 130903_NAN-DS-058 (not the run of Table 2) [contd]
# Method: (§4) The Biotin CAPture Kit (GE Healthcare) was used to immobilize biotinylated lipocalin muteins to a chip surface. Muteins were biotinylated using standard NHS chemistry. Undiluted Biotin CAPture Reagent (streptavidin conjugated with ss-DNA oligo) was captured on a Sensor Chip CAP with the pre-immobilized complementary ss-DNA oligo. Thereafter, biotinylated muteins at 1 μg/mL were applied for 300 s at a flow rate of 5 μL/min.
# (§5) CGRP species were applied in three concentrations of 30 nM, 3 nM and 0.3 nM at a flow rate of 30 μL/min or in a single concentration of 25 nM per cycle as shown in FIG. 2. The dilutions were injected with association times of 180 s and dissociation times of 5400 sec to obtain ka and kd information. Regeneration of the chip surface was achieved by injecting 6 M Guanidinium-HCl+0.25 M NaOH (120 s) with a flow rate of 10 μL/min. Injection of regeneration solutions was followed by an extra wash step with HBS-EP+(1×; BR-1006-69; GE Healthcare) running buffer and a stabilization period of 120 s.
# (§6) The data were double-referenced by subtraction of the corresponding signals measured for the control channel (loaded with Biotin CAPture reagent only) and by subtraction of buffer injections from the binding responses. Association rate constant ka and dissociation rate constant kd for the binding reaction were determined using Biacore T200 Evaluation Software V2.0 for data processing and kinetic fitting. The data were globally fit with 1:1 binding model.
# [14] = molecular target: T1, human alpha CGRP (SEQ ID NO: 80); experiment: SPR Biacore 37 °C, mutein captured as ligand, ha CGRP (1-37) injected, 1:1 fit; repeat run 130208_NAN-DS-047 (not the run of Table 2) [contd]
# Method: as §4, §5, §6
# [15] = molecular target: T2, human beta CGRP (SEQ ID NO: 81); experiment: SPR Biacore 37 °C, mutein captured as ligand, hb CGRP (1-37) injected, 1:1 fit; repeat run 130208_NAN-DS-047 (not the run of Table 2) [contd]
# Method: as §4, §5, §6
# [16] = molecular target: T3, rat alpha CGRP (SEQ ID NO: 82); experiment: SPR Biacore 37 °C, mutein captured as ligand, ra CGRP (1-37) injected, 1:1 fit; repeat run 130208_NAN-DS-047 (not the run of Table 2) [contd]
# Method: as §4, §5, §6
# [17] = molecular target: T4, rat beta CGRP (SEQ ID NO: 83); experiment: SPR Biacore 37 °C, mutein captured as ligand, rb CGRP (1-37) injected, 1:1 fit; repeat run 130208_NAN-DS-047 (not the run of Table 2) [contd]
# Method: as §4, §5, §6
Binder,IC50 [1] [nM],IC50 [2] [nM],IC50 [3] [nM],IC50 [4] [nM],Kd [5] [nM],koff [5] [s⁻¹],kon [5] [M⁻¹ s⁻¹],Kd [6] [nM],koff [6] [s⁻¹],kon [6] [M⁻¹ s⁻¹],Kd [7] [nM],koff [7] [s⁻¹],kon [7] [M⁻¹ s⁻¹],Kd [8] [nM],koff [8] [s⁻¹],kon [8] [M⁻¹ s⁻¹],other results
lipocalin mutein SEQ ID NO: 2 (designed binder) QDSTSDLIPAPPLSKVPLQQNFQDNQFHGKWYVVGEAGNWGLREDKDPKKMAATIYELKEDKSYNVTDVQFIEKKCDYWIGTFVPGSQPGEFTLGAIKSEPGQTSNLVRVVSTNYNQHAMVFFKEVWQNRELFWITLYGRTKELTSELKENFIRFSKSLGLPENHIVFPVPIDQCIDGSAWSHPQFEK,55,46,35,47,,,,,,,,,,,,,
lipocalin mutein SEQ ID NO: 3 (designed binder) QDSTSDLIPAPPLSKVPLQQNFQDNQFHGKWYVVGFAGNMWLREDKDPFKMGATIYELKEDKSYNVTWVWFEAKKCDYGINTFVPGSQPGEFTLGGIKSPPGMTSHLVRVVSTNYNQHAMVFFKEVFQNREWFWITLYGRTKELTSELKENFIRFSKSLGLPENHIVFPVPIDQCIDGSAWSHPQFEK,7.5,14,,12,,,,,,,,,,,,,
"lipocalin mutein SEQ ID NO: 4 (designed binder, biotinylated by NHS chemistry for capture in SPR) QDSTSDLIPAPPLSKVPLQQNFQDNQFHGKWYVVGWAGNTLLREDKDPTKMQATIYELKEDKSYNVTWVYFSEKKCNYHIETFVPGSQPGEFTLGTIKSYPGETSILVRVVSTNYNQHAMVFFKGVSQNREIFEITLYGRTKELTSELKENFIRFSKSLGLPENHIVFPVPIDQCIDGSAWSHPQFEK",2.1,1.8,2.6,3,1.82,0.00302,1.66e+06,0.753,0.00395,5.24e+06,5,0.00621,1.24e+06,2.19,0.00365,1.66e+06,
lipocalin mutein SEQ ID NO: 6 (designed binder) QDSTSDLIPAPPLSKVPLQQNFQDNQFHGKWYVVGIAGNWWLREDKDPLKMYATIYELKEDKSYNVTHVMFMTKKCDYTIRTFVPGSQPGEFTLGNIKSIPGMTSLLVRVVSTNYNQHAMVFFKFVWQNREWFHITLYGRTKELTSELKENFIRFSKSLGLPENHIVFPVPIDQCIDGSAWSHPQFEK,3.1,,0.77,1.6,,,,,,,,,,,,,
"lipocalin mutein SEQ ID NO: 14 (designed binder, biotinylated by NHS chemistry for capture in SPR) QDSTSDLIPAPPLSKVPLQQNFQDNQFHGKWYVVGRAGNDALREDKDPEKMEATIYELKEDKSYNVTDVGFVQKKCMYVIHTFVPGSQPGEFTLGNIKSYPGVTSALVRVVSTNYNQHAMVFFKLVKQNRELFEITLYGRTKELTSELKENFIRFSKSLGLPENHIVFPVPIDQCIDGSAWSHPQFEK",,,,,0.055,0.000141,2.56e+06,0.031,0.000141,4.56e+06,0.29,0.000339,1.19e+06,0.107,0.000181,1.69e+06,"IC50, CGRP-induced cAMP production, SK-N-MC cells [9]: 0.15 nM; IC50, CGRP-induced cAMP production, SK-N-MC cells [10]: 1.5 nM; IC50, CGRP-induced cAMP production, L6 cells [11]: 0.12 nM; IC50, CGRP-induced cAMP production, L6 cells [12]: 0.09 nM; koff [13]: 0.000183 s⁻¹; kon [13]: 3.44e+06 M⁻¹ s⁻¹"
"lipocalin mutein SEQ ID NO: 15 (designed binder, biotinylated by NHS chemistry for capture in SPR) QDSTSDLIPAPPLSKVPLQQNFQDNQFHGKWYVVGRAANDRLREDKDPEKMEATIYELKEDKSYNVTDVGFSRKKCIYVIHTFVPGSQPGEFTLGNIKSYPGTTSGLVRVVSTNYNQHAMVFFKVVGQNRESFEITLYGRTKELTSELKENFIRFSKSLGLPENHIVFPVPIDQCIDGSAWSHPQFEK",,,,,0.038,0.000238,6.32e+06,0.018,0.000273,1.53e+07,0.17,0.000274,1.59e+06,0.039,0.000193,4.98e+06,koff [14]: 0.000256 s⁻¹; kon [14]: 5.23e+06 M⁻¹ s⁻¹; koff [15]: 0.000309 s⁻¹; kon [15]: 1.22e+07 M⁻¹ s⁻¹; koff [16]: 0.000295 s⁻¹; kon [16]: 1.38e+06 M⁻¹ s⁻¹; koff [17]: 0.000178 s⁻¹; kon [17]: 2.31e+06 M⁻¹ s⁻¹
lipocalin mutein SEQ ID NO: 5 (designed binder) QDSTSDLIPAPPLSKVPLQQNFQDNQFHGKWYVVGRAGNAELREDKDPEKMEATIYELKEDKSYNVTDVGFWQKKCIYVIHTFVPGSQPGEFTLGNIKSYPGTTSALVRVVSTNYNQHAMVFFKVVRQNREWFEITLYGRTKELTSELKENFIRFSKSLGLPENHIVFPVPIDQCIDGSAWSHPQFEK,36,28,21,27,,,,,,,,,,,,,
